PMC3561149, “Bifurcation of Arabidopsis NLR Immune Signaling via Ca2+-Dependent Protein Kinases”
Changes are numbered by the printed parent chain.

B1: W-boxes probe (four W-boxes of WRKY46 promoter) (dsDNA)
DNA 1: CTGTCAATTCTTTGACCCCAGTTGACGAATGTCAATT
DNA 2: AATTGACATTCGTCAACTGGGGTCAAAGAATTGACAG
B2: mW-boxes probe (mutated W-boxes) (dsDNA)
DNA 1: B1 DNA 1 with G3T, C16A, C26A, G31T
DNA 2: B1 DNA 2 with C7A, G12T, G22T, C35A
B3: unlabeled W-boxes oligonucleotide (specific competitor) (dsDNA)
DNA 1: B1 DNA 1
DNA 2: B1 DNA 2

Columns and labels:
MBP-WRKY48 [1] = target: T1, MBP-WRKY48 (Arabidopsis thaliana (Col-0), UniProt Q9FGZ4 1-399); experiment: EMSA; unphosphorylated; EMSA: 5x binding buffer (4% glycerol, 1 mM MgCl2, 0.5 mM EDTA, 0.5 mM DTT, 10 mM Tris-HCl pH 7.5), 1 ug poly-dIdC, BSA, 2.5 ug protein, ~20,000 cpm probe, room; conditions: protein: recombinant; tags: MBP (pMAL-C2); label: 32P 5' end label
MBP-WRKY48 [2] = target: T1, MBP-WRKY48; experiment: competition; unlabeled competitor vs labeled W-boxes; binding largely reduced; EMSA: 5x binding buffer (4% glycerol, 1 mM MgCl2, 0.5 mM EDTA, 0.5 mM DTT, 10 mM Tris-HCl pH 7.5), 1 ug poly-dIdC, BSA, 2.5 ug protein, ~20,000 cpm probe, room; conditions: protein: recombinant; tags: MBP (pMAL-C2); label: none

T1 sequence (Q9FGZ4 whole entry): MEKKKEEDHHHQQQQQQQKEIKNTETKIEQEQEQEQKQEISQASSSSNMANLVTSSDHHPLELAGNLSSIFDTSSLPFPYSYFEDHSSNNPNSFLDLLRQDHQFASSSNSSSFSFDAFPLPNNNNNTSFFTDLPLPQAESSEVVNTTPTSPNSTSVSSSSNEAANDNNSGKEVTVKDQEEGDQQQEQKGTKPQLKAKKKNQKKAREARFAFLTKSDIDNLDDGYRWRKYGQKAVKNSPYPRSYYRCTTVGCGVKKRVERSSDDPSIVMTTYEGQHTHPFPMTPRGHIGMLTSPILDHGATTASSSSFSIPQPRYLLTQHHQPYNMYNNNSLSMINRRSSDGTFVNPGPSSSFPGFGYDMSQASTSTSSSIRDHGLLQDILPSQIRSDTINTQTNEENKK

Binder | binding result (MBP-WRKY48 [1]) | binding result (MBP-WRKY48 [2])
B1 | binds | 
B2 | no binding | 
B3 |  | binds
